Test results as given in the supplement of paper PMC9732359.
± gives the uncertainty stated by the source.

Test: protein stability index of a GFP-peptide fusion (yeast GPS) (PSI 1-4); higher = more stable; sorted into four equal gates, so the index is relative within each strain
Outline: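 Tiled 17-residue peptides from yeast proteins were fused downstream of GFP on a plasmid that also expresses Cherry, and the pooled library was carried in yeast. Mid-log cultures grown in leucine-free medium were sorted into four equal gates by GFP/Cherry fluorescence ratio. Plasmids from each gate were PCR-amplified and Illumina-sequenced, and reads were assigned to strains by barcodes. Each peptide's protein stability index is the sum, over gates, of the gate's read frequency multiplied by its gate number.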

Sequence	protein stability index (doa10∆)	protein stability index (pdr5∆)	protein stability index (san1∆)	protein stability index (ubr1∆)
GKTLAFVIPILIKMSRS [PRP28]	1.38 ± 0.071	1.62 ± 0.079	1.22 ± 0.19	
GKTYMGWWGHMGGPKQK [QCR8]	1.88 ± 0.22	1.79 ± 0.11	1.63 ± 0.19	2.4 ± 0.14
ALRDVKNNNNANNNGSN [GAL11]	3.33 ± 0.095	2.95 ± 0.14	3.13 ± 0.12	3.41 ± 0.11
IIVPDLIELKSDLLVAP [YML103C/NUP188]	1.65 ± 0.052	1.8 ± 0.056	1.95 ± 0.094	1.69 ± 0.059
PLSQDELISLRKILESS [YIL149C/MLP2]	2.45 ± 0.077	2.67 ± 0.067	2.15 ± 0.076	2.32 ± 0.093
FGTGQSTFGFNNSAPNN [YJL041W/NSP1]	3.17 ± 0.046	3.29 ± 0.051	3.1 ± 0.04	3.3 ± 0.036
QTAVTCESCSTVLCTPT [RPS27B]	1.89 ± 0.055	2.29 ± 0.058	2.06 ± 0.071	2.09 ± 0.066
ANICLTFLESINGINWR [SIN4]	2.54 ± 0.043	2.31 ± 0.046	2.46 ± 0.058	2.36 ± 0.042
TFANPNRTFTDPPFRIE [TAF14]	2.35 ± 0.078	2.76 ± 0.075	2.7 ± 0.094	2.27 ± 0.039
KVEYKIVHDDPASDDIL [ITC1]	3.05 ± 0.087	3.09 ± 0.086	3.05 ± 0.17	3.21 ± 0.091
RSEEEVTKLNVLVDEIK [YIL149C/MLP2]	3.42 ± 0.15	3.5 ± 0.11	3.24 ± 0.059	3.36 ± 0.082
STGLKNASDALKGRVVE [RPS1B]	3.21 ± 0.15	3.04 ± 0.099	2.91 ± 0.12	2.67 ± 0.07
RSDGMGNVLLNATVVDS [YLR335W/NUP2]	3.44 ± 0.15	3.15 ± 0.099	3.29 ± 0.099	3.15 ± 0.093
KNIAQCLSDYTKKISNF [YJL039C/NUP192]	1.79 ± 0.055	2.22 ± 0.055	2.02 ± 0.068	1.49 ± 0.036
QFTGFLLHEMTQTYMQM [GRR1]	1.92 ± 0.054	2.08 ± 0.036	2.2 ± 0.051	1.9 ± 0.041
SKINSTELLDYATKLSK [MED4]	2.79 ± 0.23	2.72 ± 0.12	2.49 ± 0.072	2.94 ± 0.15
ETANVASLNLLQLAPGA [RPL4A]	2.84 ± 0.14	3.02 ± 0.18	3.29 ± 0.078	3.27 ± 0.11
RMYEEASGKEVEKVATA [RPN2]	2.67 ± 0.25			
LKELRIDNSPQAISYLH [GRR1]	2.17 ± 0.054	2.55 ± 0.051	2.08 ± 0.057	2.4 ± 0.034
DAFVATAFATEFFVQVL [DLS1]	2.98 ± 0.089	3.03 ± 0.089	3.12 ± 0.077	3.09 ± 0.072

Sequence	protein stability index (doa10∆)	protein stability index (pdr5∆)	protein stability index (san1∆)	protein stability index (ubr1∆)
IKHKHKKVKLAVLSYYK [RPS31]	2.23 ± 0.047	2.59 ± 0.074	2.37 ± 0.073	2.25 ± 0.048
TELLNIYDSEDPQQVFD [RPN3]	2.88 ± 0.1	3.13 ± 0.078	3.15 ± 0.084	2.87 ± 0.058
SSLVRRNSVKLLSKLLL [YCS4]	1.68 ± 0.047	1.61 ± 0.04	1.64 ± 0.085	1.39 ± 0.027
DGGLEEETDEVSSESSD [SIR3]	3.3 ± 0.099	3.3 ± 0.11	3.2 ± 0.089	3.24 ± 0.086
KALDRHEFFIANHDDQD [SRP68]	3.1 ± 0.058	2.98 ± 0.091	2.89 ± 0.057	3.17 ± 0.07
VIWELDDSANIVNVNFM [DIS3]	2.96 ± 0.049	2.85 ± 0.057	3.21 ± 0.042	2.99 ± 0.045
INYLALNAANYNIDANV [ECM29]		2.76 ± 0.2		2.72 ± 0.13
INIDDLLYELTAFKATV [YJL039C/NUP192]	2.58 ± 0.052	2.67 ± 0.055	2.41 ± 0.054	2.44 ± 0.043
TANATANVNASAMPAPY [DSN1]	3.11 ± 0.042	3.17 ± 0.037	3.083 ± 0.029	3.1 ± 0.034
ANGTVVSFIKNGEEIVG [MTR3]	1.34 ± 0.07	1.6 ± 0.13	1.45 ± 0.21	1.91 ± 0.11
KYHNDLIEKEIQPKITE [SMC1]	3.11 ± 0.13	3.05 ± 0.083	2.71 ± 0.073	3.07 ± 0.059
GINKKKLLAISKFNNAD [RPC31]		1.93 ± 0.18	2.97 ± 0.23	
VYANNPEVSDDGGLEEE [SIR3]	2.97 ± 0.13	2.87 ± 0.12	2.52 ± 0.14	3.04 ± 0.09
KCTAEGIKVSLLGIFDD [RPC25]	2.19 ± 0.077	1.69 ± 0.088	2.27 ± 0.099	2.04 ± 0.061
LSNSNRFELHGDMTNSD [REC8]	2.82 ± 0.14	3.13 ± 0.16	2.58 ± 0.14	2.7 ± 0.2
GKPSFVFGASDKQAEGT [YOR098C/NUP1]	3.33 ± 0.13	3.07 ± 0.12	3.07 ± 0.12	3.29 ± 0.087
LLSFVLGVVFGRGGSGW [YML031W/NDC1]	2.33 ± 0.068	2.28 ± 0.067	2.31 ± 0.077	2.37 ± 0.096
EVDVCDKCGLMGYSGWC [RET1]	2.15 ± 0.098	2.73 ± 0.086	2.32 ± 0.19	2.39 ± 0.088
LELQVAQAFVELENSSP [RPS7A]	3.15 ± 0.14	3.14 ± 0.15	2.92 ± 0.19	1.85 ± 0.11
